{
  "source": "patent US7422883B2",
  "about": "“Map kinase integrin-binding domain” (Inter-K Pty Limited, priority 2000, dated 2008)",
  "key": {"ERK2": {"target": "T1, ERK2 (Mus musculus, UniProt P63085)", "T1 construct": "GST (glutathione-S-transferase); made in house", "T1 sequence (P63085 whole entry, the tested form may be a part)": "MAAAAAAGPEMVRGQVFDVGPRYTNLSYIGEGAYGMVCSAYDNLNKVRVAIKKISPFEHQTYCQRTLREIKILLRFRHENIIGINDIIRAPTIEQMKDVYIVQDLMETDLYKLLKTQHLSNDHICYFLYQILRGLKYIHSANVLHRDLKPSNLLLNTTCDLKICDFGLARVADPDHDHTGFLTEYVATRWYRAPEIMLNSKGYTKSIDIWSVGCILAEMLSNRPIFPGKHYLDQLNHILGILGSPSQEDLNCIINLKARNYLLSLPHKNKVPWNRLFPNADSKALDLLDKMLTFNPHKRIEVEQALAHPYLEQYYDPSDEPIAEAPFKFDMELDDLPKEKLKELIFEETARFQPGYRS", "test": "ELISA of ERK2 binding to biotinylated integrin cytoplasmic domain peptides", "conditions": "for binding of non-phosphorylated ERK2 to peptide: over a range of concentrations of ERK2, FIG. 18; for binding of ERK2 to peptide: ERK2 cleaved from GST-ERK2 by thrombin, FIG. 23; for binding of peptide to ERK2: ERK2 (1 μm), FIG. 35C; for binding of ERK2 to integrin subunit peptides: corrected for non-specific binding, FIG. 34", "experimental": "Peptide fragments corresponding to regions of the cytoplasmic tail domain of the β6 subunit were screened in an enzyme-linked immunosorbent assay (ELISA) for binding with ERK2. The 52 amino acid long β6 cytoplasmic tail is shown in FIG. 16 as are the amino acid sequences for the cytoplasmic domains of the β1 to β3 subunits. In particular, four synthetic peptides designated fragment 1 to fragment 4 were prepared and biotinylated at the N-terminal end of each, respectively (Auspep Pty Ltd, Melbourne Australia).\n(§1) Overlapping biotinylated fragments 1 to 4 were coated onto streptavidin coated polystyrene plates (Pierce, Rockford Ill. USA, Cat No. 15125) and the ELISA performed substantially according to manufacturers instructions. Briefly, wells are washed with 3×200 μl of wash buffer (TBS, 0.1% BSA, 0.05% Tween 20 or SuperBlock™ blocking buffer in TBS, Pierce, Prod. No. 37535) prior to addition of biotinylated peptides (100 μl) and incubation for 1 hr at room temperature to allow for capture of the peptides on the plate. Following another washing step, peptides were overlayed with GST-ERK, ERK (or JNK-1) alone at a volume of 100 μl per well, and the plates incubated for a further 1 hr at room temperature before removal of any unbound ERK by further washing.\nBinding of ERK to the peptides is detected using 100 μl anti-ERK1/2 mAb SC1647 (Santa Cruz) as the primary antibody at a dilution of 1:700 (isotype matched antibody IgG2b is used as a control). This is followed by another washing step and addition of 100 μl rabbit anti-mouse antibody (Biorad) conjugated to alkaline phosphatase at a concentration of 1:1000 for 30 minutes again at room temperature. A […] of detection reagent (alkaline phosphatase detection kit-Biorad) is then introduced into each well after a final washing step and allowed to react for 15-30 minutes at room temperature in the dark before absorbance is measured at 405 nm. All dilutions of peptides, MAP kinase and antibodies were performed using the wash buffer. GST-ERK is a fusion protein consisting of ERK coupled to glutathione-S-transferase and purified from host cells transfected with pGEX vector.\nTo further localise the binding domain on the cytoplasmic tail of the β6 subunit, progressively shorter peptides from the region of the β6 cytoplasmic tail corresponding to peptide fragment 2 were synthesised, biotinylated and the capacity to associate or otherwise bind to ERK2 assessed as described above. The binding of GST.ERK2 to a 15 mer test peptide (seq. 4) having the amino acid sequence RSKAKWQTGTNPLYR (SEQ ID NO: 7) and a 10 mer test peptide having the sequence RSKAKWQTGT (SEQ ID NO: 21) is shown in FIG. 20 compared to fragment 2 over a range of concentrations of the peptides. […] 4 peptide compared to fragment 2 was found. Binding of ERK2 to the seq. 3 peptide was substantially less than that observed for seq. 4.\nBinding of ERK2 to the seq.4 peptide (RSKAKWQTGTNPLYR) (SEQ ID NO: 7) was compared with peptides corresponding to regions of the cytoplasmic domain of integrin subunits β1, β2, β3 and β5. The amino acid sequences for those peptides is shown below:\nTo evaluate this, cell lysates containing equal protein loads were prepared from SW480 wild-type cells and SW480 cells transfected with either vector alone (mock transfectants), wild type β6 or the β6 deletion mutant Δ746-764 (lacking the sequence EAERSKAKWQTGTNPLYRG (SEQ ID NO: 26), Cone et al, 1994). The lysates were immunoprecipitated with mAbs R6G9 (anti-β6), P1F6 (anti-β5) or murine IgG control antibody (mlgG). […] To determine whether β5 can bind ERK2 in vitro, a 15-mer peptide fragment derived from the β5 cytoplasmic domain corresponding to the ERK binding domain on β6 was tested for its ability to bind ERK2 in an ELISA."}, "JNK-1": {"target": "T2, JNK-1 (Homo sapiens, UniProt P45983)", "T2 construct": "purchased Santa Cruz", "T2 sequence (P45983 whole entry, species assumed, the tested form may be a part)": "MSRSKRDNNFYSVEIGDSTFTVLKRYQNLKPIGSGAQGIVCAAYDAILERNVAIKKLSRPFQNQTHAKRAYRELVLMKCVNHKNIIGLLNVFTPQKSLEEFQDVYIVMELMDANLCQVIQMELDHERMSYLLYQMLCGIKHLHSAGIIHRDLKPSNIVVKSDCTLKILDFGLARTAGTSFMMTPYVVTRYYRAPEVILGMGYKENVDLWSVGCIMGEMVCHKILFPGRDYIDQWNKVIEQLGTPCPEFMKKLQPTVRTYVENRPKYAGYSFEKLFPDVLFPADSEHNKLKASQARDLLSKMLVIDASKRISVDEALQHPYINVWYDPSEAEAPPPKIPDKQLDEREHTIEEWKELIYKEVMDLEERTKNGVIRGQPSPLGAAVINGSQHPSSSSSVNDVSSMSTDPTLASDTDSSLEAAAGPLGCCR", "test": "ELISA of JNK-1 binding to β6 cytoplasmic tail peptide", "conditions": "JNK-1 0.05-1.5 μm/100 μl; FIG. 24", "experimental": "as §1\nBriefly, 0.05-1.5 μm/100 μl of JNK-1 (Santa Cruz) was aliquoted into wells of a 96 well culture place containing increasing concentrations of the β6 cytoplasmic domain tail peptide used in Example 3. For comparison purposes, non-phosphorylated GST-ERK2 (0.05-1.5 μm/100 μl) was aliquoted into wells containing β6 cytoplasmic tail peptide or peptide fragments 1 or 2, respectively. Binding of JNK-1 was detected using mouse anti-JNK-1 mAb SC 474-G (Santa Cruz) and HRP-conjugated goat anti-mouse antibody."}, "β6-ERK2 interaction": {"test_system": "β6-ERK2 interaction", "test": "ERK2 peptide competition ELISA for β6-ERK2 binding", "conditions": "increasing concentrations incubated with ERK2", "experimental": "To determine the β6-binding domain(s) of ERK2, a biotinylated β6 cytoplasmic tail peptide spanning the cytoplasmic tail of β6 was incubated with a soluble ERK2 peptide fragment in a total incubation volume of 20 μl phosphate buffered saline (PBS). The mixture was stood for 45 minutes at room temperature (RT). Soluble ERK2 in PBS was then added and the solution left for a further 30 minutes. Following incubation the reaction volume was made to 400 μl with carbonate buffer (0.015 M Na2CO3 and 0.035M NaHCO3 at pH 9.6) and 100 μl of this mixture added to each of 4 wells of a polystyrene ELISA plate (Nunc, Maxicorp). ERK2/peptides were allowed to attach to the plastic substrate for 18 to 20 hours at RT in the dark. After immobilisation the overlying buffer was flicked from the wells and excess solid surface blocked with casein (0.5% skim milk) in PBS for 60 minutes at RT. Wells were washed (×3) with was buffer (PBS plus 0.5% skim milk powder, 0.05% Tween-20) prior to incubation with the anti-β6 antibody SC-6632 (Santa Cruz) diluted 1:500 v/v in wash buffer (2 wells) or a control antibody (2 wells). Incubation with the primary antibody was carried out for 30 minutes at RT. […] Specific binding events were quantitatively determined using a colourimetric substrate system by measuring absorbency at […] (Bio-Rad, AP substrate kit). […]"}, "[1]": {"test_system": "MAP kinase activity in WiDr wild-type cells", "test": "MAP kinase assay, serum-stimulated WiDr cells", "format": "cell-based, human", "conditions": "inhibitors 40 μM added one hour before serum, serum 30 min", "experimental": "(§2) Cultures of WiDr and HT29 mock and antisense β6 transfectants were established by seeding 1×10^6 cells/5 ml of culture medium in 25 cm^2 tissue culture flasks. Cells were incubated at 37° C. in humidified CO2 for 24 hours before serum starvation in serum-free medium for the next 16 hours. Foetal calf serum was then added to a final concentration of 10% for 30 mins before MAP kinase assays were performed. […] The ability of cells to transfer phosphate from [γ^32P]-ATP to a synthetic peptide that contains specifically a p42/p44 MAP kinase phosphorylation site was measured as described in the manufacturer's instructions. [^32P]-labelled peptides were spotted onto PEI-cellulose paper, unbound radioactivity was washed with 75 mM phosphoric acid and bound [^32P]-labelled peptides were measured by liquid scintillation counting. Protein estimation was performed on each cell lysate used and enzyme activity calculated as described in the manufacturer's instructions. […]\n(§3) The effect of MEK (MAP kinase) inhibitors UO126 and PD98059 on MAP kinase activity in WiDr and HT29 wild-type cells was tested in the absence/presence of serum. […] Serum was then added for 30 min and MAP kinase activity assessed before and after addition of serum. […]"}, "[2]": {"test_system": "MAP kinase activity in HT29 wild-type cells", "test": "MAP kinase assay, serum-stimulated HT29 cells", "format": "cell-based, human", "conditions": "inhibitors 40 μM added one hour before serum, serum 30 min", "experimental": "as §2, §3"}, "[3]": {"test_system": "gelatinase B secretion by SW480 β6 transfectants", "test": "Gelatinase B secretion, gelatin zymogram of tumour-conditioned medium", "format": "cell-based, human", "conditions": "40 μM, serum-free, 48 hours, versus DMSO control", "experimental": "SW480 β6 transfectants were cultured under serum-free conditions for 48 hours in the absence/presence of the MEK inhibitor PD98059 (40 μM) or DMSO (vehicle control). Tumour-conditioned medium was assayed for gelatinase B by analysis of equal protein loads in a gelatin zymogram."}},
  "note": "No end group written: not given here. *: point of attachment. Biotin = O=C1N[C@H]2[C@H](CS[C@H]2CCCCC(=O)*)N1",
  "data": [
    {"molecule": "RSKAKWQTGTNPLYRGSTST (Biotin-RSKAKWQTGTNPLYRGSTST) [fragment 2, biotinylated peptide of the β6 cytoplasmic tail]", "values": [
      {"measurement": "binding of non-phosphorylated GST.ERK2 to peptide", "setting": "ERK2; GST.ERK2 0.25 μg/100 μl, peptide 1 μg/100 μl, FIG. 17", "result": "significant binding"},
      {"measurement": "binding of non-phosphorylated ERK2 to peptide", "setting": "ERK2", "result": "Significant binding"}
    ]},
    {"molecule": "RSKAKWQTGT (also: biotinylated, site not given here) [seq. 3, 10 mer test peptide of the β6 cytoplasmic tail]", "values": [
      {"measurement": "binding of GST.ERK2 to peptide", "setting": "ERK2; over a range of concentrations of the peptides, compared to fragment 2, FIG. 20", "result": "substantially less than that observed for seq. 4"}
    ]},
    {"molecule": "RSKAK (also: biotinylated, site not given here) [5 mer peptide]", "values": [
      {"measurement": "binding of ERK2 to peptide", "setting": "ERK2", "result": "Negligible binding"}
    ]},
    {"molecule": "RSKAKNPLYR [10(4), 4 is omitted]", "values": [
      {"measurement": "binding of ERK2 to peptide", "setting": "ERK2", "result": "Comparable binding of ERK2 to seq. 4"}
    ]},
    {"molecule": "KFEKEKMNAKWDTGENPIYK [β1, peptide of the β1 cytoplasmic domain]", "values": [
      {"measurement": "binding of peptide to ERK2", "setting": "ERK2", "result": "failed to bind ERK2"}
    ]},
    {"molecule": "β6 cytoplasmic tail peptide: peptide spanning the 52 amino acid long β6 cytoplasmic tail (HDRKEVAKFEAERSKAKWQTGTNPLYRGSTSTFKNVTYKHREKQKVDLSTDS)", "values": [
      {"measurement": "binding of non-phosphorylated ERK2 to peptide", "setting": "ERK2", "result": "Significant binding"},
      {"measurement": "binding of JNK-1 to peptide", "setting": "JNK-1", "result": "Significant binding"},
      {"measurement": "concentration at which maximal β6 bound to ERK was detected", "setting": "β6-ERK2 interaction", "result": 0.25, "unit": "µM"}
    ]},
    {"molecule": "RARAKWDTANNPLYK [β3, peptide of the β3 cytoplasmic domain]", "values": [
      {"measurement": "binding of ERK2 to integrin subunit peptides", "setting": "ERK2", "result": "Binding of ERK2 to the β5 and β3 peptides was also found"}
    ]},
    {"molecule": "RSRARYEMASNPLYR [β5, 15-mer peptide of the β5 cytoplasmic domain]", "values": [
      {"measurement": "binding of peptide to ERK2", "setting": "ERK2", "result": "Dose-dependant binding"},
      {"measurement": "binding of ERK2 to integrin subunit peptides", "setting": "ERK2", "result": "Binding of ERK2 to the β5 and β3 peptides was also found"}
    ]},
    {"molecule": "COc1cccc(-c2cc(=O)c3ccccc3o2)c1N", "note": "[PD98059]", "values": [
      {"measurement": "serum-stimulated MAP kinase activity", "setting": "[1]", "result": "inhibitable"},
      {"measurement": "serum-stimulated MAP kinase activity", "setting": "[2]", "result": "inhibitable"},
      {"measurement": "gelatinase B secretion", "setting": "[3]", "result": "reduced gelatinase B secretion compared with controls"}
    ]}
  ]
}
